Results taken from patent publication US20170326246A1 (INSTITUT PASTEUR, published 2017).
*1 amine or outer side, *2 acyl side, *3 side chain or, on linkers, in order; H or OH if unused. [ ]: non-standard residue; d: D form. U1 = 4-cyclohexylmethoxy-L-phenylalanine, O=C([C@H](Cc1ccc(OCC2CCCCC2)cc1)N[*:1])[*:2]; Bip = N[C@@H](Cc1ccc(-c2ccccc2)cc1)C(=O)O; Tpa = thiopropionic acid

What was measured:
Assay in all cases: cell-based or functional assay
[1] = biological target: gp120 of viral strain Bal (HIV, strain Bal)
[2] = biological target: gp120 of viral strain MP568 (CRF02) (HIV, strain MP568 (CRF02))
[3] = biological target: gp120 of viral strain VI824 (HIV, strain VI824)
[4] = biological target: gp120 of viral strain pREJO.c/2864 cl2 (HIV, strain pREJO.c/2864 cl2)
[5] = biological target: gp120 of viral strain VI820 (HIV, strain VI820)
[6] = biological target: gp120 of viral strain VI829 (HIV, strain VI829)
[7] = biological target: gp120 of viral strain VI1888 (CRF01) (HIV, strain VI1888 (CRF01))
[8] = biological target: gp120 of viral strain SF162 (HIV, strain SF162, UniProt P19550 32-502)
[9] = biological target: gp120 of viral strain p246F10 (HIV, strain p246F10)
[10] = biological target: gp120 of viral strain SHIV162p3 (SHIV162p3)
[11] = biological target: gp120 of viral strain Ca10-3 (CRF01) (HIV, strain Ca10-3 (CRF01))
[12] = biological target: gp120 of viral strain IIIB (HIV, strain IIIB)
gp120 of viral strain MN = gp120 of viral strain MN (HIV, strain MN, UniProt P05877 32-513)

Binder | EC50 (antiviral activity, TZM-bl cells, luciferase) [1] | EC50 (antiviral activity, TZM-bl cells, luciferase) [2] | EC50 (antiviral activity, TZM-bl cells, luciferase) [3] | EC50 (antiviral activity, TZM-bl cells, luciferase) [4] | EC50 (antiviral activity, TZM-bl cells, luciferase) [5] | EC50 (antiviral activity, TZM-bl cells, luciferase) [6] | EC50 (antiviral activity, TZM-bl cells, luciferase) [7] | EC50 (antiviral activity, TZM-bl cells, luciferase) [8] | EC50 (antiviral activity, TZM-bl cells, luciferase) [9] | EC50 (antiviral activity, TZM-bl cells, luciferase) [10] | EC50 (antiviral activity, TZM-bl cells, luciferase) [11] | EC50 (antiviral activity, TZM-bl cells, luciferase) [12] | EC50 (antiviral activity, TZM-bl cells, luciferase) (gp120 of viral strain MN)
Tpa-NLHKCQLRCSSLGLLGRCAGS[Bip]CACV-NH2 (disulfide (positions not given here); also: three disulphide bridges, pairing not given here) [mCD4.1] | 236 nM | 7930 nM | 3180 nM | 108 nM | 1690 nM | > 10000 nM | > 1000 nM | 130 nM | > 10000 nM | 5370 nM | 96 nM | 29 nM | 20 nM
mCD4.1-PS1 (N-terminal gamma-aminobutyric acid (gammaAbu) acylated with 3-thiopropionyl (from SATP); all six Tyr are sulfotyrosine (YSO3); N-terminal Tpa (thiopropionic acid); Bip at position 23; C-terminal …; Lys5 N-epsilon carries the PEO2-maleimide linker bound to the thiol of the PS1 chain) peptide 1: NLHKCQLRCSSLGLLGRCAGSFCACV peptide 2: SYDYSYDYSYDYS | 0.54 nM | 310 nM | 40 nM | 0.66 nM | 25 nM | 16 nM | 1100 nM | 0.11 nM | 723 nM | 36 nM | 0.57 nM | 0.013 nM | 0.08 nM
mCD4.3-PS1 (not fully specified; N-terminal gamma-aminobutyric acid (gammaAbu) acylated with 3-thiopropionyl (from SATP); all six Tyr are sulfotyrosine (YSO3); N-terminal Tpa; D-proline at position 21; U1 (4-cyclohexylmethoxy-L-phenylalanine) at position 23; C-terminal amide; Lys5 N-epsilon carries the PEO2-maleimide linker bound to the thiol of the PS1 chain) peptide 1: NLHKCQLRCRSLGLLGRCAPTFCACV peptide 2: SYDYSYDYSYDYS | 0.031 nM | 4.2 nM | 0.7 nM | 0.28 nM | 0.024 nM | 3.6 nM | 1210 nM | 0.008 nM | 33 nM | 1.4 nM | 0.076 nM | 0.0025 nM | 0.026 nM
Tpa-NLHFCQLRCKSLGLLGRCA[dP]T[U1]CACV-NH2 (disulfide (positions not given here)) [M48U1] | 0.96 nM | 129 nM | 29 nM | – | 3.8 nM | 59 nM | 8420 nM | 1 nM | – | 24 nM | 2.7 nM | 0.08 nM | 0.25 nM
M48U1-PS1 (not fully specified; N-terminal gamma-aminobutyric acid (gammaAbu) acylated with 3-thiopropionyl (from SATP); all six Tyr are sulfotyrosine (YSO3); N-terminal Tpa; D-proline at position 21; U1 (4-cyclohexylmethoxy-L-phenylalanine) at position 23; C-terminal amide; Lys11 N-epsilon carries the PEO2-maleimide linker bound to the thiol of the PS1 chain) peptide 1: NLHFCQLRCKSLGLLGRCAPTFCACV peptide 2: SYDYSYDYSYDYS | 0.13 nM | 15 nM | 2.2 nM | – | 0.1 nM | 1.1 nM | 1070 nM | 0.05 nM | – | 3.4 nM | 0.6 nM | 0.02 nM | 0.12 nM
Tpa-NLHKCQLRCSSLGLLGRCA[dP]T[U1]CACV-NH2 (disulfide (positions not given here)) [mCD4.2] | 2 nM | 155 nM | 56 nM | 76 nM | 6.1 nM | 512 nM | 9760 nM | 1.24 nM | 718 nM | 69 nM | 4.73 nM | 0.22 nM | 0.6 nM
mCD4.2-PS1 (not fully specified; N-terminal gamma-aminobutyric acid (gammaAbu) acylated with 3-thiopropionyl (from SATP); all six Tyr are sulfotyrosine (YSO3); N-terminal Tpa; D-proline at position 21; U1 (4-cyclohexylmethoxy-L-phenylalanine) at position 23; C-terminal amide; Lys5 N-epsilon carries the PEO2-maleimide linker bound to the thiol of the PS1 chain) peptide 1: NLHKCQLRCSSLGLLGRCAPTFCACV peptide 2: SYDYSYDYSYDYS | 0.034 nM | 4.9 nM | 0.68 nM | 0.27 nM | 0.031 nM | 4 nM | 1060 nM | 0.01 nM | 58 nM | 2.2 nM | 0.12 nM | 0.007 nM | 0.046 nM
Tpa-NLHKCQLRCRSLGLLGRCA[dP]T[U1]CACV-NH2 (disulfide (positions not given here)) [mCD4.3] | 2.3 nM | 204 nM | 39 nM | 46 nM | 4.2 nM | 221 nM | 8020 nM | 0.66 nM | 510 nM | 29 nM | 3.1 nM | 0.16 nM | 0.37 nM
